The values below are quoted from earlier work in US5977174A, “Cholinergic compositions and uses thereof” (Neuromedica, Inc., priority 1997, dated 1999).

B1: C84S tPA: tPA variants in which a cysteine at position 84 of the growth factor domain of native tPA is replaced by serine (protein, UniProt P00750 36-562, looked up, variant C84S)
Tissue-type plasminogen …: SYQVICRDEKTQMIYQQHQSWLRPVLRSNRVEYCWCNSGRAQCHSVPVKSCSEPRCFNGGTCQQALYFSDFVCQCPEGFAGKCSEIDTRATCYEDQGISYRGTWSTAESGAECTNWNSSALAQKPYSGRRPDAIRLGLGNHNYCRNPDRDSKPWCYVFKAGKYSSEFCSTPACSEGNSDCYFGNGSAYRGTHSLTESGASCLPWNSMILIGKVYTAQNPSAQALGLGKHNYCRNPDGDAKPWCHVLKNRRLTWEYCDVPSCSTCGLRQYSQPQFRIKGGLFADIASHPWQAAIFAKHRRSPGERFLCGGILISSCWILSAAHCFQERFPPHHLTVILGRTYRVVPGEEEQKFEVEKYIVHKEFDDDTYDNDIALLQLKSDSSRCAQESSVVRTVCLPPADLQLPDWTECELSGYGKHEALSPFYSERLKEAHVRLYPSSRCTSQHLLNRTVTDNMLCAGDTRSGGPQANLHDACQGDSGGPLVCLNDGRMTLVGIISWGLGCGQKDVPGVYTKVTNYLDWIRDNMRP
In the case of B1, the “in vivo half life vs native tPA” value was “longer in vivo half life than native tPA”.
